B1: Hammerhead Ribozyme (parent)
chain: ACCGGAUGUGCUUUCCGGUCUGAUGAGUCCGUGAGGACGAAACAG

Variants of: B1
Assay: self-cleavage, relative activity (ratio to wild type); higher = more cleavage; co-transcriptional

Row | Variant | self-cleavage
1 | U21A C43U | 0.398
2 | G22A C30G | 0.343
3 | G22A C30U | 0.417
4 | G22A C30A | 0.392
5 | U21C G35A | 0.741
6 | U21C G35C | 0.681
7 | U21C G35U | 0.727
8 | U21G A23G | 0.387
9 | U21G A23C | 0.36
10 | U21G A23U | 0.448
11 | G22A U32C | 0.29
12 | G22A U32A | 0.306
13 | G22A U32G | 0.264
14 | G22A A23C | 0.224
15 | G22A A23U | 0.343
16 | G22A A23G | 0.313
17 | G22A C38U | 0.328
18 | G22A C38G | 0.329
19 | G22A C38A | 0.327
20 | C20U G33A | 0.867
21 | C20U G33U | 0.762
22 | C20U G33C | 0.682
23 | U21A C29G | 0.354
24 | U21A C29U | 0.558

Row | Variant | self-cleavage
25 | U21A C29A | 0.31
26 | G22A C29A | 0.342
27 | G22A C29G | 0.332
28 | G22A C29U | 0.279
29 | U21C U24G | 1.07
30 | U21C U24A | 1.13
31 | U21C U24C | 0.909
32 | G22A G45A | 0.369
33 | G22A G45U | 0.383
34 | G22A G45C | 0.436
35 | G22A G36C | 0.309
36 | G22A G36U | 0.344
37 | G22A G36A | 0.361
38 | G22C A37C | 0.286
39 | G22C A34G | 0.306
40 | G22C A34U | 0.318
41 | G22C A34C | 0.283
42 | U21G C30A | 0.419
43 | U21G C30U | 0.837
44 | U21G C30G | 0.373
45 | U21A U24A | 0.652
46 | U21A U24C | 0.329
47 | U21A U24G | 0.516
48 | G22A U28G | 0.37

Row | Variant | self-cleavage
49 | G22A U28C | 0.294
50 | G22A U28A | 0.326
51 | U21A A23C | 0.474
52 | U21A A23U | 0.34
53 | U21A A23G | 0.419
54 | C20U G27C | 0.409
55 | C20U G27A | 0.373
56 | C20U G27U | 0.332
57 | U21C A37U | 0.72
58 | U21C A37C | 0.907
59 | U21C A37G | 0.866
60 | G22A A37C | 0.304
61 | G22A A37G | 0.285
62 | G22A A37U | 0.288
63 | U21C G27C | 0.557
64 | U21C G27A | 0.597
65 | U21C G27U | 0.361
66 | U21G G45C | 0.278
67 | U21G G45U | 0.281
68 | U21G G45A | 0.4
69 | G22A A44G | 0.672
70 | G22A A44C | 0.372
71 | G22A A44U | 0.314
72 | U21C G25C | 0.308

Row | Variant | self-cleavage
73 | U21C G25U | 0.342
74 | U21C G25A | 0.336
75 | U21C A26G | 0.295
76 | U21C A26C | 0.404
77 | U21C A26U | 0.503
78 | U21A A34U | 0.359
79 | U21A A34G | 0.387
80 | U21A A34C | 0.439
81 | U21G C43G | 0.324
82 | U21G C43A | 0.346
83 | U21G C43U | 0.317
84 | G22A A41C | 0.383
85 | G22A A41U | 0.318
86 | G22A A41G | 0.365
87 | U21G A42C | 0.393
88 | U21G A42G | 0.223
89 | U21G A42U | 0.36
90 | U21G A41G | 0.29
91 | U21G A41C | 0.404
92 | U21G A41U | 0.333
93 | G22A G25C | 0.329
94 | G22A G25A | 0.377
95 | G22A G25U | 0.376
96 | U21A U32A | 0.539

Row | Variant | self-cleavage
97 | U21A U32G | 0.515
98 | U21A U32C | 0.508
99 | U21A G25A | 0.334
100 | U21A G25U | 0.333
101 | U21A G25C | 0.312
102 | U21C A34C | 0.316
103 | U21C A34G | 0.653
104 | U21C A34U | 0.749
105 | U21G G36U | 0.333
106 | U21G G36C | 0.365
107 | U21G G36A | 0.382
108 | C20U U32G | 0.494
109 | C20U U32A | 0.506
110 | C20U U32C | 0.395
111 | U21C A40U | 0.274
112 | U21C A40C | 0.393
113 | U21C A40G | 0.371
114 | G22A A40C | 0.371
115 | G22A A40G | 0.297
116 | G22A A40U | 0.366
117 | U21A A41U | 0.325
118 | U21A A41G | 0.401
119 | U21A A41C | 0.437
120 | G22C A26G | 0.253

Row | Variant | self-cleavage
121 | G22C A26U | 0.343
122 | G22C A26C | 0.3
123 | G22A G35C | 0.294
124 | G22A G35A | 0.336
125 | G22A G35U | 0.328
126 | U21G U32C | 0.523
127 | U21G U32A | 0.389
128 | U21G U32G | 0.549
129 | U21G U24A | 0.814
130 | U21G U24C | 0.391
131 | U21G U24G | 0.536
132 | U21A G22A | 0.35
133 | U21A G22U | 0.407
134 | U21A G22C | 0.31
135 | U21C G22U | 0.277
136 | U21C G22C | 0.39
137 | U21C G22A | 0.335
138 | G22A G27A | 0.342
139 | G22A G27U | 0.28
140 | G22A G27C | 0.39
141 | C20U G35A | 0.412
142 | C20U G35C | 0.407
143 | C20U G35U | 0.347
144 | U21G C29U | 0.471

Row | Variant | self-cleavage
145 | U21G C29A | 0.3
146 | U21G C29G | 0.285
147 | C20U U28C | 0.661
148 | C20U U28A | 0.621
149 | C20U U28G | 0.596
150 | U21G G39A | 0.354
151 | U21G G39C | 0.314
152 | U21G G39U | 0.37
153 | U21C C43A | 0.216
154 | U21C C43U | 0.487
155 | U21C C43G | 0.415
156 | U21A A26U | 0.356
157 | U21A A26C | 0.299
158 | U21A A26G | 0.346
159 | U21G G33U | 0.798
160 | U21G G33A | 0.704
161 | U21G G33C | 0.867
162 | C20U G45A | 0.359
163 | C20U G45C | 0.471
164 | C20U G45U | 0.387
165 | G22A A26U | 0.338
166 | G22A A26G | 0.269
167 | G22A A26C | 0.316

Source: the RNAGym collection of RNA variant scans (doi:10.7554/elife.80360)
